Experimental data taken from patent US20240400715A1 (VIBRANT PHARMA, published 2024).
Numbering of substitutions follows the chain as printed. Each block holds one binder with its values, some of them ahead of it.

Assays:
[1] = target: T1, human CEA (CEACAM5) on tumor cells (human, UniProt P06731 35-702); assay: cell-based or functional assay
T1 sequence (looked up): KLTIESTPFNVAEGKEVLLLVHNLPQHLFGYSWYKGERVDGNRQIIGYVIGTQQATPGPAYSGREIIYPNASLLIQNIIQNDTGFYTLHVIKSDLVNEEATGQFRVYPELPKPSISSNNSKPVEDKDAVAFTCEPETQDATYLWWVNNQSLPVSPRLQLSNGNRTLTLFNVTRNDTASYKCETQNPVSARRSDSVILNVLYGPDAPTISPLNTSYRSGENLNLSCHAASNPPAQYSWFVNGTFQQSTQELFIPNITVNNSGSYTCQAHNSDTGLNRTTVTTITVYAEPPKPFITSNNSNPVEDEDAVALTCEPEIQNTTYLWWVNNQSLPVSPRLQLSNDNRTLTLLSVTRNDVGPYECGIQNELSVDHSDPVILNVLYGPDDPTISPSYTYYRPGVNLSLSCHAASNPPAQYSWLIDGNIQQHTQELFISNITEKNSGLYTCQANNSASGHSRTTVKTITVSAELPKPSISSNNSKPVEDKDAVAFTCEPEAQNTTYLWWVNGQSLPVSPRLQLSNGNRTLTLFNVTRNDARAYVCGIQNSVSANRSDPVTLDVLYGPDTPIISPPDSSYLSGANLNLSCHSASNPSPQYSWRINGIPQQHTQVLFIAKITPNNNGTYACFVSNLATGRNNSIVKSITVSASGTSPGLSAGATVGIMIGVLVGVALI

[2] = target: T1, human CEA (CEACAM5) on tumor cells; assay: cell-based or functional assay; remark: listed apart in the source
[3] = target: T2, keyhole limpet haemocyanin (KLH, Sigma, H8283) (keyhole limpet, UniProt Q10583 17-3414; Q10584 20-3421, limits assumed); assay: ELISA, KLH coated at 5 ug/mL, 100 nM antibody, anti-human IgG-HRP
T2 construct: Bought preparation coated on the plate in the polyspecificity ELISA
Method: (§1) (1) Antigen coating: cardiolipin (Sigma, cat. C0563), keyhole limpet haemocyanin (KLH, Sigma, H8283), LPS (Sigma, L6529), ssDNA (Sigma, D8899), dsDNA (Sigma, D4522) and Insulin (abs42019847) were plated at 50 μg/mL, 5 μg/mL, 10 μg/mL, 1 μg/mL, 1 μg/mL, g/mL, and 50 μL per well, and incubated at 4° C. overnight;
(§2) (4) 50 μl anti-human IgG-HRP conjugate (Sigma, AP113P, 1:8000 dilution) was added to each well; the plate was incubated for 1 h at room temperature and washed 6 times with 0.05% PBST;

Insulin (abs42019847) = target: T3, Insulin (abs42019847); assay: ELISA, insulin coated on the plate, 100 nM antibody, anti-human IgG-HRP
T3 construct: Coated on the plate in the polyspecificity ELISA
Method: as §1, §2

[4] = target: the molecule itself; assay: BLI self-interaction: antibody captured on AHQ anti-human Fc sensor, free sites blocked with human IgG, same antibody in solution
Method: The bispecific antibodies were diluted to 1 μM, and the proteins were coupled to the surface of the AHQ sensor chip in PBS, and the signal value was ˜0.8 nm. […] The experimental parameters are as follows: Baseline1: 60s, Loading: 180s, Loading response: 0.8 nm, Baseline2: 180s, Association: 240s, High sensitivity kinetics: 2 Hz.

[5] = target: T4, human HER2 on tumor cells (human, UniProt P04626 23-1255); assay: cell-based or functional assay
[6] = target: T4, human HER2 on tumor cells; assay: cell-based or functional assay; remark: listed apart in the source
[7] = target: T5, recombinant tumor antigen human HER2 (ERBB2, ACRO systems, HE2-H5212) (human, UniProt P04626 23-652); assay: BLI (Octet RED96e), antibody captured on AHC anti-human Fc sensor, HER2 as analyte, 30 C, 1:1 fit
T5 construct: Bought recombinant protein
From the text: After the chip captures the bispecific antibodies, it was allowed to bind and dissociate with different concentrations of analytes to obtain the KD value of the interaction. The experimental parameters are as follows: Baseline1: 60s, Loading: 240s, Baseline2: 180s, Association: 240s, Dissociation: 600s, Loading Response: 1.9-2.1 (nm), High sensitivity kinetics: 2 Hz. Kinetic constants were derived based on 1:1 Langmuir binding to obtain equilibrium dissociation constants (KD).

Absorbance value (450 nm, polyspecificity ELISA) [3]: 1.05 | Absorbance value (450 nm, polyspecificity ELISA) (Insulin (abs42019847)): 2.02
B1: bispecific antibody 101 (Fab-Knob+CEA-Hole) (bispecific antibody, human IgG4 S228P, kappa, F234A L235A)
heavy: EVKLLESGGGLVQPKGSLKLSCAASGFTFNTYAMNWVRQAPGKGLEWVARIRSKYNNYATYYADSVKDRFTISRDDSQSILYLQMNNLKTEDTAMYYCVRHGNFGNSYVSWFAYWGQGTLVTVSSASTKGPSVFPLAPCSRSTSESTAALGCLVKDYFPEPVTVSWNSGALTSGVHTFPAVLQSSGLYSLSSVVTVPSSSLGTKTYTCNVDHKPSNTKVDKRVESKYGPPCPPCPAPEAAGGPSVFLFPPKPKDTLMISRTPEVTCVVVDVSQEDPEVQFNWYVDGVEVHNAKTKPREEQFNSTYRVVSVLTVLHQDWLNGKEYKCKVSNKGLPSSIEKTISKAKGQPREPQVYTLPPCQEEMTKNQVSLWCLVKGFYPSDIAVEWESNGQPENNYKTTPPVLDSDGSFFLYSRLTVDKSRWQEGNVFSCSVMHEALHNHYTQKSLSLSL
chain: EVQLVESGGGFVQAGESLTLSCTSSTLTFTPYRMAWYRQAPGKQRDLVADISSGDGRTTNYADFAKGRFTISRDNIKNTVFLRMTNLKPEDTAVYYCNTFVSFVGIARSWGQGTQVTVSSESKYGPPCPPCPAPEAAGGPSVFLFPPKPKDTLMISRTPEVTCVVVDVSQEDPEVQFNWYVDGVEVHNAKTKPREEQFNSTYRVVSVLTVLHQDWLNGKEYKCKVSNKGLPSSIEKTISKAKGQPREPQVCTLPPSQEEMTKNQVSLSCAVKGFYPSDIAVEWESNGQPENNYKTTPPVLDSDGSFFLVSRLTVDKSRWQEGNVFSCSVMHEALHNRFTQKSLSLSL
light: QAVVTQESALTTSPGETVTLTCRSSTGAVTTSNYANWVQEKPDHLFTGLIGGTNKRAPGVPARFSGSLIGDKAALTITGAQTEDEAIYFCALWYSNLWVFGGGTKVEIKRTVAAPSVFIFPPSDEQLKSGTASVVCLLNNFYPREAKVQWKVDNALQSGNSQESVTEQDSKDSTYSLSSTLTLSKADYEKHKVYACEVTHQGLSSPVTKSFNRGEC
notes: Human IgG4 Fc with knob-into-hole, kappa light chain
EC50 of tumor cell killing, MDA-MB-468 cells with human PBMC (E:T 10:1, 3 days, CCK8) [1]: 1.16 nM | EC50 of tumor cell killing, NCI-H1573 cells with human PBMC (E:T 10:1, 3 days, CCK8) [1]: 0.00287 nM | EC50 of tumor cell killing, SK-OV-3 cells with human PBMC (E:T 10:1, 3 days, CCK8) [1]: 1 nM | EC50 of tumor cell killing, MCF-7 cells with human PBMC (E:T 10:1, 3 days, CCK8) [2]: 8.01 nM | EC50 of tumor cell killing, MDA-MB-453 cells with human PBMC (E:T 10:1, 3 days, CCK8) [2]: 8.35 nM | EC50 of tumor cell killing, N87 cells with human PBMC (E:T 10:1, 3 days, CCK8) [2]: 0.2 nM | BLI-Response (self-interaction signal) [4]: 0.21 nm

Absorbance value (450 nm, polyspecificity ELISA) [3]: 1.45 | Absorbance value (450 nm, polyspecificity ELISA) (Insulin (abs42019847)): 1.52 | Kd [7]: 13.1 nM | koff [7]: 0.00349 s⁻¹ | kon [7]: 266000 M⁻¹ s⁻¹
B2: HER2-CD3 bispecific antibody 501 (bispecific antibody, human IgG4 S228P, kappa, F234A L235A)
heavy: B1 heavy
chain: QVQLVQSGGGLVQAGGSLRLSCAASGRTFSSYAMAWFRQAPGKEREFVAAISWSGANIYVADSVKGRFTISRDNAKDTVYLQMNSLKPEDTAVYYCAVKLGFAPVEERQYDYWGQGTQVTVSSESKYGPPCPPCPAPEAAGGPSVFLFPPKPKDTLMISRTPEVTCVVVDVSQEDPEVQFNWYVDGVEVHNAKTKPREEQFNSTYRVVSVLTVLHQDWLNGKEYKCKVSNKGLPSSIEKTISKAKGQPREPQVCTLPPSQEEMTKNQVSLSCAVKGFYPSDIAVEWESNGQPENNYKTTPPVLDSDGSFFLVSRLTVDKSRWQEGNVFSCSVMHEALHNRFTQKSLSLSL
light: B1 light
EC50 of tumor cell killing, MDA-MB-468 cells with human PBMC (E:T 10:1, 3 days, CCK8) [5]: 1.79 nM | EC50 of tumor cell killing, NCI-H1573 cells with human PBMC (E:T 10:1, 3 days, CCK8) [5]: 0.0405 nM | EC50 of tumor cell killing, NCI-H1650 cells with human PBMC (E:T 10:1, 3 days, CCK8) [5]: 1.59 nM | EC50 of tumor cell killing, NCI-H2228 cells with human PBMC (E:T 10:1, 3 days, CCK8) [5]: 10.2 nM | EC50 of tumor cell killing, SK-OV-3 cells with human PBMC (E:T 10:1, 3 days, CCK8) [5]: 0.0198 nM | EC50 of tumor cell killing, MCF-7 cells with human PBMC (E:T 10:1, 3 days, CCK8) [6]: 8.29 nM | EC50 of tumor cell killing, MDA-MB-453 cells with human PBMC (E:T 10:1, 3 days, CCK8) [6]: 4.05 nM | EC50 of tumor cell killing, N87 cells with human PBMC (E:T 10:1, 3 days, CCK8) [6]: 1.32 nM | EC50 of tumor cell killing, NCI-H157 cells with human PBMC (E:T 10:1, 3 days, CCK8) [6]: 36.2 nM | EC50 of tumor cell killing, NCI-H441 cells with human PBMC (E:T 10:1, 3 days, CCK8) [6]: 0.152 nM | BLI-Response (self-interaction signal) [4]: 0.056 nm

Absorbance value (450 nm, polyspecificity ELISA) [3]: 1.08 | Absorbance value (450 nm, polyspecificity ELISA) (Insulin (abs42019847)): 2.88
B3: bispecific antibody 104 (CEA-Knob+Fab-Hole) (bispecific antibody, human IgG4 S228P, kappa, F234A L235A)
chain: B1 chain with C251Y, S256C, S268W, A270L, V309Y, R337H, F338Y
heavy: B1 heavy with Y354C, C359S, W371S, L373A, Y412V, H440R, Y441F
light: B1 light
notes: as for B1
EC50 of tumor cell killing, MDA-MB-468 cells with human PBMC (E:T 10:1, 3 days, CCK8) [1]: 0.672 nM | EC50 of tumor cell killing, NCI-H1573 cells with human PBMC (E:T 10:1, 3 days, CCK8) [1]: 0.00384 nM | EC50 of tumor cell killing, SK-OV-3 cells with human PBMC (E:T 10:1, 3 days, CCK8) [1]: 0.987 nM | EC50 of tumor cell killing, MCF-7 cells with human PBMC (E:T 10:1, 3 days, CCK8) [2]: 8.63 nM | EC50 of tumor cell killing, MDA-MB-453 cells with human PBMC (E:T 10:1, 3 days, CCK8) [2]: 1.96 nM | EC50 of tumor cell killing, N87 cells with human PBMC (E:T 10:1, 3 days, CCK8) [2]: 0.0972 nM | BLI-Response (self-interaction signal) [4]: 0.22 nm
